From PMC8794893 (Proceedings of the National Academy of Sciences of the …, 2022)

Experiments:
[1] = target: T1, Archaeoglobus fulgidus DsrAB dissimilatory sulfite reductase (Archaeoglobus fulgidus VC-16 …, UniProt Q59109 1-418; Q59110 1-366); assay: MST
[2] = target: T1, Archaeoglobus fulgidus DsrAB …; assay: SPR

T1 sequence (Q59109 whole entry, chain 1 of 2): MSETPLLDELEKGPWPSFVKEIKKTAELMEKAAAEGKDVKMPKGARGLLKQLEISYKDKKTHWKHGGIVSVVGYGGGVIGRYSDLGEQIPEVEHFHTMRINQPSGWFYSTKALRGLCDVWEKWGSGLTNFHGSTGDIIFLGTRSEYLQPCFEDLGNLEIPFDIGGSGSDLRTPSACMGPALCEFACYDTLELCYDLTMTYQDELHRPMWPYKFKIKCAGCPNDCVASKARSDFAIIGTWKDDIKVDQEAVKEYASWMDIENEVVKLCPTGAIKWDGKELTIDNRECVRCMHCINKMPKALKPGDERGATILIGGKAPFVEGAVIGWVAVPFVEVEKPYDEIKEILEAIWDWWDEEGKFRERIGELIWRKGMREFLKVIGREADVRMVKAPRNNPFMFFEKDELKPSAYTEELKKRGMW
T1 sequence (Q59110 whole entry, chain 2 of 2): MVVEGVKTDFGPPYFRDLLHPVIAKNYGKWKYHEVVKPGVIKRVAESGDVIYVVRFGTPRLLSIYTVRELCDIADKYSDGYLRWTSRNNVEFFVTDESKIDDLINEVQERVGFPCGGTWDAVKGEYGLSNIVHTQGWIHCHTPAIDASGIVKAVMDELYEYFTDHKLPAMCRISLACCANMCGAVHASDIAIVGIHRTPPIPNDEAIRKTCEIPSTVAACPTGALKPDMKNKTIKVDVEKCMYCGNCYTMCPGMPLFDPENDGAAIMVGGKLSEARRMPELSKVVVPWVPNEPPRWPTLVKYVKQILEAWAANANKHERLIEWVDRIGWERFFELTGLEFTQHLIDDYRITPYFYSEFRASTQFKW

B1: recombinant Archaeoglobus fulgidus DsrD with C-terminal His-tag (natural protein, Archaeoglobus fulgidus VC-16, UniProt P70742 1-77, looked up)
chain: MADYTEEDKQKVLAQLSKKTWKIPELAKILKMDKKVVKKIVQDLINEGVAGYWSSGSTTYVATKEYIEELEKKRAEG
modifications: RED-NHS dye on amines (Monolith NT Protein Labeling Kit RED-NHS second generation), in the MST experiment only
- Kd [1]: 350 ± 60 nM
- Kd [2]: 540 ± 20 nM
